# Experiments:
# [1] = system: N=C(N)NCCC[C@H](NC(=O)[C@H](Cc1ccc(NC(=N)N)cc1)NC(=O)OCc1ccccc1)C(=O)Nc1ccc2ccc(=O)oc2c1; test: (§1) Inhibition of human cathepsin B assessed as ratio of Kcat/Km using Z-Phe-Arg-MCA as substrate by spectrofluorometric method
# [2] = system: N=C(N)NCCC[C@H](NC(=O)OCc1ccccc1)C(=O)N[C@@H](CCCNC(=N)N)C(=O)Nc1ccc2ccc(=O)oc2c1; test: as §1
# [3] = system: N=C(N)NCCC[C@H](NC(=O)[C@H](Cc1ccccc1)NC(=O)OCc1ccccc1)C(=O)Nc1ccc2ccc(=O)oc2c1; test: as §1
# [4] = system: N=C(N)NCCC[C@H](NC(=O)[C@H](Cc1ccncc1)NC(=O)OCc1ccccc1)C(=O)Nc1ccc2ccc(=O)oc2c1; test: as §1
substance,measurement,setting,value
Cathepsin B (Homo sapiens),kcat/Km,[1],1.57e+06 M⁻¹ s⁻¹
same,kcat/Km,[2],554000 M⁻¹ s⁻¹
same,kcat/Km,[3],2.32e+06 M⁻¹ s⁻¹
same,kcat/Km,[4],742000 M⁻¹ s⁻¹

# Reference: ChEMBL document CHEMBL4321793, “Can Cysteine Protease Cross-Class Inhibitors Achieve Selectivity?” (J Med Chem, 2019)
